This is an account of results in article PMC13393422, “Cross-regulation of amino acid synthesis and anaerobic electron transfer by MetR-mediated methionine signaling”.

Data set [1] addresses T1, MetR (C-his-MetR) (Shewanella oneidensis MR-1, UniProt Q8EIM1 1-301).
T1 sequence: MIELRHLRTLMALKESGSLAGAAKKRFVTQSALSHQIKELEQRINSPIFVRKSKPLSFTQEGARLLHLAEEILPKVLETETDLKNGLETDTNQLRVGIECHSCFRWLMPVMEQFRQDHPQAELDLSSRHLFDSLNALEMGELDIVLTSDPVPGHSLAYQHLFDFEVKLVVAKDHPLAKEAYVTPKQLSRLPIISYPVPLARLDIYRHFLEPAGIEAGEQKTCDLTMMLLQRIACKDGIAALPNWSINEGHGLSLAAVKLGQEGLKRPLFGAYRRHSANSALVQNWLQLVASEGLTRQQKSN
Description: EMSA; 4 mM hCys; 0-250 ng MetR (4B), 500 ng (4C); 50 mM Tris-HCl pH 8.0, 0.5 mM EDTA, 2 mM MgSO4, 1 mM DTT, 100 ug/mL BSA, 10 ug/mL poly(dI-dC), 4 mM hCys, 20% glycerol, 1 nM Cy3 probe, 20 uL; 20 C 10 min; gel. The note with it: protein: recombinant; tags: C-terminal His tag (pET-26b(+), NdeI/XhoI); chain copies: 4; label: 5'-Cy3 on strand 2; blunt. In general terms: A gel shift assay detects complexes by their altered migration in electrophoresis.

In data set [2] the target is T1, MetR (C-his-MetR). Description: competition; 4 mM hCys; 5,000-fold excess over labeled omcA probe, shift disappeared; 50 mM Tris-HCl pH 8.0, 0.5 mM EDTA, 2 mM MgSO4, 1 mM DTT, 100 ug/mL BSA, 10 ug/mL poly(dI-dC), 4 mM hCys, 20% glycerol, 1 nM Cy3 probe, 20 uL; 20 C 10 min; gel. The conditions noted are these: protein: recombinant; tags: C-terminal His tag (pET-26b(+), NdeI/XhoI); chain copies: 4; label: none; blunt.

The target in data set [3] is T1, MetR (C-his-MetR). Nature of the data set: EMSA; 4 mM hCys; 500 ng MetR; 50 mM Tris-HCl pH 8.0, 0.5 mM EDTA, 2 mM MgSO4, 1 mM DTT, 100 ug/mL BSA, 10 ug/mL poly(dI-dC), 4 mM hCys, 20% glycerol, 1 nM Cy3 probe, 20 uL; 20 C 10 min; gel. The note with it: protein: recombinant, tags: C-terminal His tag (pET-26b(+), NdeI/XhoI), chain copies: 4, label: 5'-Cy3 on strand 2.

B1: omcA probe (dsDNA)
DNA 1: CCACACATTAAATACGACTAATGAGATTTGTTCTTATTTG
DNA 2: CAAATAAGAACAAATCTCATTAGTCGTATTTAATGTGTGG
B1: the binding result with MetR (C-his-MetR) [1] is “binds”.

B2: omcA probe, unlabeled competitor (dsDNA)
DNA 1: CCACACATTAAATACGACTAATGAGATTTGTTCTTATTTG
DNA 2: CAAATAAGAACAAATCTCATTAGTCGTATTTAATGTGTGG
Consider B2, for which the binding result in the data set with MetR (C-his-MetR) [2] was “binds”.

B3: dmsE probe (dsDNA)
DNA 1: CTTATGGTGTTTTTGAGAATGATTTTCTTTTATTTGATTTC
DNA 2: GAAATCAAATAAAAGAAAATCATTCTCAAAAACACCATAAG
As for B3, the binding result with MetR (C-his-MetR) [3] (blunt) is “binds”.

B4: glyA probe (dsDNA)
DNA 1: CTCAACTCGGCATTGAGGTGCATTCAAGTTAAAACTGTAG
DNA 2: CTACAGTTTTAACTTGAATGCACCTCAATGCCGAGTTGAG
For B4, the binding result in the data set with MetR (C-his-MetR) [3] (blunt) is reported as “binds”.

B5: metR probe (dsDNA)
DNA 1: GATTTCAAGCGCAACATGAGCGAAATTCACTTGGAGTGATC
DNA 2: GATCACTCCAAGTGAATTTCGCTCATGTTGCGCTTGAAATC
As for B5, the binding result in the data set with MetR (C-his-MetR) [3] (blunt) is given as “binds”.

B6: cymA probe (dsDNA)
DNA 1: GTATTAGCTGGAGTTGAAGTACTCTAACGCTCTGCTAAGC
DNA 2: GCTTAGCAGAGCGTTAGAGTACTTCAACTCCAGCTAATA
In the case of B6, in the data set with MetR (C-his-MetR) [3] (5' overhang 1 nt on strand 1 as printed (strand 2 is 39 nt; text says 40 bp)), the binding result was “binds”.

B7: omcA-m probe (dsDNA)
DNA 1: CCACACATTAAATACGACTAAGGGGATTTGGGGGTATTTG
DNA 2: CAAATACCCCCAAATCCCCTTAGTCGTATTTAATGTGTGG
Consider B7, for which the binding result in the data set with MetR (C-his-MetR) [3] (blunt) is given as “no binding”.

B8: luxS probe (dsDNA)
DNA 1: GCATCTGACTGATATGAGATGATTTCATCTTAAGTTATC
DNA 2: GATAACTTAAGATGAAATCATCTCATATCAGTCAGATGC
Turning to B8, the binding result in the data set with MetR (C-his-MetR) [3] (blunt) is “binds”.
